Reference: publication PMC13047697
Read-outs that look alike come from different tables or passages of the source.

T1: SsoSSB WT (Saccharolobus solfataricus DSM 1617 …, UniProt Q97W73 1-148)
T1 sequence: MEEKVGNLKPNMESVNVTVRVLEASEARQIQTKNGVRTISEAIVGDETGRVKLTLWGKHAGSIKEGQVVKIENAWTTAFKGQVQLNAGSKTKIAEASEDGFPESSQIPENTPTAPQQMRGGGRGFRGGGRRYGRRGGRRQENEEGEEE


Columns and labels:
Assay in all cases: native MS
SsoSSB WT [1] = molecular target: T1, SsoSSB WT
SsoSSB WT [2] = molecular target: T1, SsoSSB WT; remark: listed apart in the source
SsoSSB WT [3] = molecular target: T1, SsoSSB WT; remark: listed apart in the source
SsoSSB WT [4] = molecular target: T1, SsoSSB WT; remark: listed apart in the source

| Binder | Kd (SsoSSB WT [1]) [µM] | Kd (SsoSSB WT [2]) [µM] | Kd (SsoSSB WT [3]) [µM] | Kd (SsoSSB WT [4]) [µM] |
| --- | --- | --- | --- | --- |
| TTTTTTTTTTTTTTTTTTTTTTTTTTTTTT (ssDNA) [T30] | 0.209 | 0.197 | 0.266 | 0.253 |
| TTTTTTTTTTTTTTT (ssDNA) [T15] | 2.08 | 1.94 | 1.32 | 1.24 |
